± gives the standard deviation.

This data set can be described thus: collision cross section of modified peptide (TIMS, N2, iRT-aligned); higher = larger / more extended gas-phase ion. The method, boiled down: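 Values are averages of 1–3 technical replicates of the most abundant feature for each charge state. Collision cross section was obtained from the Mason-Schamp equation after 1/K0 calibration with three reference ions and run-wise alignment to the median iRT peptide deviation. Synthetic peptide pools (iRT standard spiked 1:40) were separated on a 120-min nanoflow C18 gradient at 60 °C, analysed on a timsTOF Pro/HT (dda-PASEF, nitrogen, ~2.4 mbar) and identified with MaxQuant.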

[1] abbreviates: charge state: 2, modification: Dimethyl (K).
The mark [2] stands for this setting: charge state: 2, modification: Butyryl.
Where [3] appears, read: charge state: 3, modification: Butyryl.
The mark [4] stands for this setting: charge state: 2, modification: Crotonyl.
Setting [5] is: charge state: 3, modification: Crotonyl.
The mark [6] stands for this setting: charge state: 3, modification: Hydroxyproline.
Setting [7] is: charge state: 3, modification: Dimethyl (K).
Setting [8] is: charge state: 3, modification: Trimethyl (K).
The mark [9] stands for this setting: charge state: 2, modification: Glutarylation.
Setting [10] is: charge state: 3, modification: Glutarylation.
[11] abbreviates: charge state: 2, modification: Methyl (K).
Setting [12] is: charge state: 3, modification: Methyl (K).
Where [13] appears, read: charge state: 2, modification: Nitro (Y).
[14] abbreviates: charge state: 2, modification: Trimethyl (K).
Setting [15] is: charge state: 2, modification: Acetyl (K).
The mark [16] stands for this setting: charge state: 2, modification: Phospho (Y).

Under setting [1], SGFGKFER [_SGFGK(Dimethyl (K))FER_] returned a collision cross section of 334.57 ± 1.1 Å².

Turning to SKHLQEQLNELK [_SK(Butyryl)HLQEQLNELK_], the collision cross section came to 422.39 ± 0.24 Å² under setting [2] and 490.06 ± 2.9 Å² under setting [3].

“SLGEPAAGEGSAKR [_SLGEPAAGEGSAK(Crotonyl)R_]”: the collision cross section under setting [4] is 387.18 ± 0.89 Å² and the collision cross section under setting [5] amounted to 487.34 ± 1.3 Å².

As for “ISSNFSSIIAEKLR [_ISSNFSSIIAEK(Butyryl)LR_]”, the collision cross section under setting [2] was 436.86 ± 0.55 Å².

In the case of “GERGPPGPPGR [_GERGPPGP(Hydroxyproline)PGR_]”, the collision cross section under setting [6] was found to be 409.61 ± 0.34 Å².

In the case of “SLGEPAAGEGSAKR [_SLGEPAAGEGSAK(Butyryl)R_]”, the collision cross section is, setting by setting: under setting [2], 388.15 ± 2 Å²; under setting [3], 487.74 ± 4.3 Å².

Substance “PRTPTAPAVNLAGAR [_PR(Methyl (R))TPTAPAVNLAGAR_]” returned a collision cross section (charge state: 3, modification: Methyl (R)) of 486.43 ± 2.3 Å².

As for GERGVPGER [_GERGVP(Hydroxyproline)GER_], the collision cross section reads like this: (charge state: 2, modification: Hydroxyproline) 328.27 ± 0.79 Å²; under setting [6], 402.04 Å².

Turning to “AGPNASIISLKSDK [_AGPNASIISLK(Butyryl)SDK_]”, under setting [2], the collision cross section worked out at 413.93 ± 1.1 Å².

As to “TVSKVDDFLANEAK [_TVSK(Dimethyl (K))VDDFLANEAK_]”, the collision cross section is recorded as 415.63 Å² under setting [1] and 482.42 ± 2.9 Å² under setting [7].

The substance “VLDSGAPIKIPVGPETLGR [_VLDSGAPIK(Trimethyl (K))IPVGPETLGR_]” registered a collision cross section under setting [8] of 508.9 ± 0.87 Å².

On to LEQVEKELLR [_LEQVEK(Butyryl)ELLR_], for which the collision cross section under setting [2] is given as 391.61 ± 1.3 Å².

Turning to “LGNDFHTNKR [_LGNDFHTNK(Gluratylation)R_]”, the collision cross section runs as follows: under setting [9], 382 ± 0.1 Å²; under setting [10], 434.71 ± 2.9 Å².

“FDDTNPEKEEAK [_FDDTNPEK(Gluratylation)EEAK_]”: the collision cross section is, setting by setting: under setting [9], 403.46 ± 1.1 Å²; under setting [10], 440.63 Å².

As for “DVNAAIAAIKTK [_DVNAAIAAIK(Methyl (K))TK_]”, the collision cross section by setting is: under setting [11], 392.53 ± 0.95 Å²; under setting [12], 462.62 ± 2.7 Å².

In the case of “DAEAAEATAEGALKAEK [_DAEAAEATAEGALK(Methyl (K))AEK_]”, the collision cross section under setting [11] turned out to be 456.59 ± 2.6 Å² and the collision cross section under setting [12] was determined as 536.13 ± 1.5 Å².

On to ISALQGKLSK [_ISALQGK(Dimethyl (K))LSK_], for which the collision cross section turned out to be 355.29 ± 0.29 Å² under setting [1] and 425.26 ± 1.1 Å² under setting [7].

In the case of LLFSNTAAQKLR [_LLFSNTAAQK(Crotonyl)LR_], the collision cross section stood at 404.43 ± 0.55 Å² under setting [4] and 483.58 ± 1.6 Å² under setting [5].

Turning to LYLPVQNK [_LY(Nitro (Y))LPVQNK_], under setting [13], the collision cross section is reported as 340.84 ± 0.55 Å².

Regarding “SLEEEGAAHSGKR [_SLEEEGAAHSGK(Butyryl)R_]”, the collision cross section is recorded as 418.69 ± 0.77 Å² under setting [2] and 478.81 ± 1.8 Å² under setting [3].

In the case of “VLDSGAPIKIPVGPETLGR [_VLDSGAPIK(Butyryl)IPVGPETLGR_]”, the collision cross section reads like this: under setting [2], 472.51 ± 0.49 Å²; under setting [3], 512.04 ± 1.8 Å².

Turning to “VTLEVGKVIQQGR [_VTLEVGK(Trimethyl (K))VIQQGR_]”, the collision cross section is on record as 428.78 ± 1 Å² under setting [14] and 471.08 ± 1.8 Å² under setting [8].

For the substance “GFALVGVGSEASSKK [_GFALVGVGSEASSK(Crotonyl)K_]”, the collision cross section runs as follows: under setting [4], 448.38 ± 0.94 Å²; under setting [5], 499.08 ± 1.9 Å².

On to “VGTASVLQPVKK [_VGTASVLQPVK(Acetyl (K))K_]”, for which the collision cross section under setting [15] amounted to 379.84 ± 0.47 Å².

Take “GTISAPGKVVTAAAQAK [_GTISAPGK(Methyl (K))VVTAAAQAK_]”: the collision cross section is reported as 466.62 ± 2.3 Å² under setting [11] and 495.95 ± 2.3 Å² under setting [12].

As to “AAQASDLEKIHLDEK [_AAQASDLEK(Methyl (K))IHLDEK_]”, the collision cross section under setting [11] worked out at 449.24 Å² and the collision cross section under setting [12] was found to be 507.05 ± 2 Å².

“FSAYIKNSNPALNDNLEK [_FSAYIK(Acetyl (K))NSNPALNDNLEK_]” showed a collision cross section under setting [15] of 479.82 ± 3 Å² and a collision cross section (charge state: 3, modification: Acetyl (K)) of 541.74 Å².

“VFIGNLNTLVVKK [_VFIGNLNTLVVK(Trimethyl (K))K_]”: the collision cross section reads like this: under setting [14], 435.19 ± 1 Å²; under setting [8], 485.88 ± 1.8 Å².

For TPNLYIYSKK [_TPNLYIYSK(Butyryl)K_], the collision cross section by setting is: under setting [2], 388.09 ± 0.85 Å²; under setting [3], 439.93 Å².

Regarding “YIEIYVQKVNPSR [_YIEIYVQK(Dimethyl (K))VNPSR_]”, the collision cross section under setting [1] is 441.4 ± 1.2 Å² and the collision cross section under setting [7] is given as 503.81 ± 1.6 Å².

Take “VGTASVLQPVKK [_VGTASVLQPVK(Methyl (K))K_]”: the collision cross section is, setting by setting: under setting [11], 392.83 ± 0.43 Å²; under setting [12], 460.66 ± 3.8 Å².

As to HGVYNPNK [_HGVY(Nitro (Y))NPNK_], under setting [13], the collision cross section came to 338.11 ± 3.3 Å².

Take “ITESVAETAQTIKK [_ITESVAETAQTIK(Trimethyl (K))K_]”: the collision cross section runs as follows: under setting [14], 451.09 ± 1 Å²; under setting [8], 496.11 ± 2.8 Å².

As for “VSPASSVDSNIPSSQGYKK [_VSPASSVDSNIPSSQGYK(Dimethyl (K))K_]”, the collision cross section under setting [7] amounted to 536.37 ± 0.42 Å².

In turn, YEITEQR [_Y(Phospho (Y))EITEQR_] came in with a collision cross section under setting [16] of 328.08 ± 0.068 Å².

Substance “PLPVALQTRLAK [_PLPVALQTR(Citrullination (R))LAK_]” displayed a collision cross section (charge state: 2, modification: Citrullination (R)) of 391.36 ± 0.54 Å².

Substance “VDIDVPDVNIEGPDAKLK [_VDIDVPDVNIEGPDAK(Malonyl)LK_]” came in with a collision cross section (charge state: 2, modification: Malonyl) of 474.57 Å².

With “ALASIDSKLNQAK [_ALASIDSK(Dimethyl (K))LNQAK_]”, the collision cross section under setting [1] is listed as 412.97 ± 1.1 Å² and the collision cross section under setting [7] was 457.79 ± 2.1 Å².

For IQQELQTAKK [_IQQELQTAK(Methyl (K))K_], the collision cross section came to 376.86 ± 3.5 Å² under setting [11] and 430.18 ± 6.1 Å² under setting [12].

Consider “VDIDAPDVSIEGPDAKLK [_VDIDAPDVSIEGPDAK(Trimethyl (K))LK_]”, for which the collision cross section under setting [14] is listed as 465.65 ± 1.2 Å² and the collision cross section under setting [8] is on record as 534.07 ± 1.8 Å².

In turn, “DAIHFYNKSLAEHR [_DAIHFYNK(Butyryl)SLAEHR_]” displayed a collision cross section under setting [2] of 452.1 Å² and a collision cross section under setting [3] of 511.38 ± 1.6 Å².

For “GEVGAGAGPGAQAGPSAKR [_GEVGAGAGPGAQAGPSAK(Gluratylation)R_]”, the collision cross section is, setting by setting: under setting [9], 425.64 ± 1.1 Å²; under setting [10], 490.81 ± 0.95 Å².

Take “ISSNFSSIIAEKLR [_ISSNFSSIIAEK(Methyl (K))LR_]”: the collision cross section reads like this: under setting [11], 438.59 ± 1.7 Å²; under setting [12], 507.3 ± 3.6 Å².

“PANEKATDDYHYEK [_PANEK(Dimethyl (K))ATDDYHYEK_]” had a collision cross section under setting [7] of 491.56 Å².

In the case of DLYEPSHGAK [_DLY(Phospho (Y))EPSHGAK_], under setting [16], the collision cross section is 375.68 ± 0.063 Å².

LVFDEYLK [_LVFDEY(Nitro (Y))LK_] yielded a collision cross section under setting [13] of 355.63 ± 0.17 Å².

Values taken from the supplement of paper PMC10598134.
